{
  "source": "paper PMC10200060",
  "about": "“Inhibition of DAMP actions in the tumoral microenvironment using lactoferrin-glycyrrhizin conjugate for glioblastoma therapy” (Biomaterials Research, 2023)",
  "key": {"[1]": {"tested_on": "U87MG human glioma cell line", "assay": "Cell viability test (CCK-8) in U87MG", "format": "cell-based", "conditions": "50 μM GL equivalent", "experimental": "Cell viability was determined using a cell counting kit-8 (CCK-8). U87MG and HUVECs (seeding density: 0.75 × 10^4 cells per well) in 96-well culture plates were treated with GL, Lf, or Lf-GL (25 to 200 × 10^–6 M of GL equivalent concentration) and were incubated for different periods of time (24, 48, and 72 h). After washing with PBS, they were treated with a cell culture medium containing a CCK-8 assay kit (Abbkine) and were incubated at 37 °C and 5% CO2 for 2 h. Then, absorbance was measured at 450 nm in a micro-plate reader (VLBL00D0, Thermo Fisher Scientific). Results were quantified using Sigma Plot (Systat Software, USA). To determine the effect of extracellular HMGB1 in GBM and endothelial cell proliferation, U87MG and HUVECs were seeded in 96-well culture plates (seeding density: 0.75 × 10^4 cells per well) and GL, Lf, or Lf-GL (50 × 10^–6 M GL equivalent concentration) were added to cells with or without HMGB1 protein (U87MG: 0.1 μg mL^−1, and HUVEC: 1 μg mL^−1). Cells were incubated for different periods of time (24, 48, and 72 h)."}, "U87MG": {"tested_on": "U87MG", "assay": "Annexin V/PI apoptosis staining in U87MG", "format": "cell-based, human", "conditions": "GL equivalent 50 µM, 24 h (control 1.40%)", "experimental": "Fig. S10. Non-apoptotic U87MG growth inhibition of Lf-GL. Annexin V-DY-634 / PI apoptosis staining to detect the apoptosis and necrosis in the Control, GL, Lf, and Lf-GL treated group at all GL equivalent concentration of 50 µM for 24 h. However, the cell population of annexin V (+)/PI (+) in the Lf-GL treatment group was 0.28%, which was even lower level to 1.40% in the Control group"}, "HMGB1": {"tested_on": "HMGB1", "assay": "HMGB1 ELISA of U87MG culture medium", "format": "cell-based, human", "conditions": "50 μM GL equivalent, 48 h (control 131.8 ± 11.4)", "experimental": "U87MG cells were seeded in 100 mm-cell culture dishes (2.2 × 10^6 cells per dish) and treated with GL, Lf, or Lf-GL (50 × 10^–6 M GL equivalent concentration) for 48 h. After incubating, cells were collected using a cell scrapper and were centrifuged for 3 min at 150 × g. Supernatant was collected as cell culture medium, and pellets were washed with cold PBS twice and transferred into a microcentrifuge tube. Tubes were centrifuged, and then pellets were resuspended in 500 μL 1X hypotonic buffer and incubated on ice. Then, 25 μL of NP40 was added and the mixture was agitated using a vortex mixer at the highest setting. Homogenates were centrifuged for 10 min at 842 × g at 4℃. Supernatant was collected as the cytoplasmic fraction, and pellets were resuspended in cell extraction buffer (50 μL) and were incubated for 30 min on ice with vortexing at 10 min intervals. Then, homogenates were centrifuged for 30 min at 14,000 × g at 4℃. Supernatant was collected as the nuclear fraction. The amount of HMGB1 in the samples was measured using a HMGB1 ELISA kit (Abbkine), and absorbance was measured at 450 nm in a micro-plate reader. A DNA assay (Quant-iT™ dsDNA Assay Kit, Invitrogen) was also conducted to express HMGB1 concentrations in equivalent amounts of DNA."}, "HUVEC": {"tested_on": "HUVEC", "assay": "HUVEC co-cultured with U87MG: CCK-8 at basal chamber", "format": "cell-based, human", "conditions": "HUVEC/U87MG Transwell co-culture, 100 μM GL equivalent, 24 h", "experimental": "To evaluate the inhibitory effect of Lf-GL on neovascularization in the tumor microenvironment in vitro, U87MG cells were seeded in the Transwell® insert chambers that were 6.5 mm in diameter and had 0.4 μm pore sizes (seeding density: 2.5 × 10^4 cells per well, Corning). HUVECs were seeded in the Transwell basal chamber (seeding density: 5.0 × 10^4 cells per well). GL, Lf, or Lf-GL (100 × 10^–6 M of GL equivalent concentration) were added to the insert chamber, and cells were incubated for 24 h. CCK-8 assay and HMGB1 ELISA were conducted at the basal chamber."}, "[2]": {"assay": "In vivo fluorescence tracer image (brain)", "set-up": "species or system Balb/c mice", "conditions": "FITC-tagged", "experimental": "For the fluorescence tracer images, Balb/c mice were administered either FITC-tagged GL or FITC-tagged Lf-GL at a GL equivalent concentration of 50 mg kg^−1 body weight via tail vein injection. After 1, 10, 30, and 60 min, the experimental mice were sacrificed, and the organs were extracted. The fluorescence signals of FITC-tagged GL or FITC-tagged Lf-GL in organs were imaged using an in vivo imaging system (FOBI, CELLGENTEK, South Korea). The exposure time was fixed to 200 s for analyzing fluorescent signals from tissues. The quantified fluorescence signal of the brain at each time point was measured in terms of intensity units (IU, Intensity Min^−1 Gain^−1).\nFig. S15. Fluorescence tracer images of intravenously injected GL and Lf-GL. Balb/c mice were administered either FITC-tagged GL or FITC-tagged Lf-GL at a GL equivalent concentration of 50 mg kg^-1 body weight via tail vein injection. The fluorescence signals of FITC-tagged GL or FITC-tagged Lf-GL in organs were imaged using an in vivo imaging system (FOBI, CELLGENTEK, South Korea). The exposure time was fixed to 200 sec for analyzing fluorescent signals from tissues. The quantified fluorescence signal of brain at each time point was measured with Intensity Unit (IU, Intensity Min^-1 Gain^-1)."}, "CD31": {"tested_on": "CD31", "assay": "Immunofluorescence staining of CD31 in GBM tissue", "format": "in vivo, Balb/c nude mice", "conditions": "GBM mice, daily i.v., 14 days (control MFI 14.7 ± 1.4)", "source_text": "(§1) After two weeks, mice were sacrificed, and the brains were harvested and fixed with paraformaldehyde (4%). Then, tissue processing was automatically conducted using a Leica TP1020 semi-enclosed Benchtop Tissue Processor (Leica Biosystems, Wetzlar, Hesse, Germany), followed by embedding in paraffin blocks. Paraffin blocks were sliced into 5 μm thick slices using a Leica RM2145 Microtome (Leica Biosystems). Nissl staining was used to stain brain tissue slides with pre-warmed 0.1% Cresyl Violet Stain Solution (Abcam). TUNEL assays were conducted following the manufacturer’s instructions. For immunofluorescence staining; anti-HMGB1 antibody (Abcam), anti-Ki67 antibody (Abcam), anti-CD31 antibody (Abcam), and anti-VEGF antibody (Abcam) were used as primary antibodies, and goat anti-rabbit IgG-H&L Alexa Fluor 488 and goat anti-rabbit IgG H&L Alexa Fluor 647 were used as secondary antibodies, followed by DAPI mounting."}, "[3]": {"tested_on": "orthotopic GBM (U87MG) mice model", "assay": "Nissl staining: GBM/normal brain ratio", "format": "in vivo, Balb/c nude mice", "conditions": "daily i.v. GL equivalent 50 mg kg^−1, 14 days (control 37.5 ± 2.3)", "source_text": "as §1"}, "[4]": {"tested_on": "orthotopic GBM (U87MG) mice model", "assay": "TUNEL assay of GBM tissue", "format": "in vivo, Balb/c nude mice", "conditions": "daily i.v., 14 days (control 28.5 ± 4.8)", "source_text": "as §1"}},
  "data": [
    {"molecule": "Lf-GL: lactoferrin-glycyrrhizin conjugate with ligation ratio Lf:GL 1:10, used in further experiments (conjugate, UniProt P24627 20-708, looked up, glycyrrhizin conjugate) Lactotransferrin: APRKNVRWCTISQPEWFKCRRWQWRMKKLGAPSITCVRRAFALECIRAIAEKKADAVTLDGGMVFEAGRDPYKLRPVAAEIYGTKESPQTHYYAVAVVKKGSNFQLDQLQGRKSCHTGLGRSAGWIIPMGILRPYLSWTESLEPLQGAVAKFFSASCVPCIDRQAYPNLCQLCKGEGENQCACSSREPYFGYSGAFKCLQDGAGDVAFVKETTVFENLPEKADRDQYELLCLNNSRAPVDAFKECHLAQVPSHAVVARSVDGKEDLIWKLLSKAQEKFGKNKSRSFQLFGSPPGQRDLLFKDSALGFLRIPSKVDSALYLGSRYLTTLKNLRETAEEVKARYTRVVWCAVGPEEQKKCQQWSQQSGQNVTCATASTTDDCIVLVLKGEADALNLDGGYIYTAGKCGLVPVLAENRKSSKHSSLDCVLRPTEGYLAVAVVKKANEGLTWNSLKDKKSCHTAVDRTAGWNIPMGLIVNQTGSCAFDEFFSQSCAPGADPKSRLCALCAGDDQGLDKCVPNSKEKYYGYTGAFRCLAEDVGDVAFVKNDTVWENTNGESTADWAKNLNREDFRLLCLDGTRKPVTEAQSCHLAVAPNHAVVSRSDRAAHVKQVLLHQQALFGKNGKNCPDKFCLFKSETKNLLFNDNTECLAKLGGRPTYEEYLGTEYVTAIANLKKCSTSPLLEACAFLTR", "values": [
      {"measurement": "Growth rate", "setting": "[1]; 72 h", "result": "68.7 ± 15.9", "unit": "%"},
      {"measurement": "Number of cells, % of the original count", "setting": "[1]; after 48 h treatment", "result": "44.1 ± 6.3", "unit": "%"},
      {"measurement": "Annexin V (+)/PI (+) cell population", "setting": "U87MG", "result": 0.28, "unit": "%"},
      {"measurement": "HMGB1 released into the medium of U87MG cells", "setting": "HMGB1", "result": "74.0 ± 0.9", "unit": "ng/mL"},
      {"measurement": "Reduction of endothelial cell proliferation", "setting": "HUVEC", "result": "13.0 ± 0.7", "unit": "%"},
      {"measurement": "Time up to which fluorescence signal was detected in the brain", "setting": "[2]; i.v. GL equivalent 50 mg kg^−1", "result": "up to 60 min"},
      {"measurement": "Fluorescence intensity in the brain", "setting": "[2]; i.v. GL equivalent 50 mg kg^−1, 10 min after injection", "result": "15,234 I.U."},
      {"measurement": "Decrease of MFI of CD31", "setting": "CD31", "result": "sevenfold"},
      {"measurement": "GBM/normal brain ratio", "setting": "[3]", "result": "8.9 ± 3.2"},
      {"measurement": "TUNEL MFI", "setting": "[4]", "result": "9.1 ± 0.9"}
    ]}
  ]
}
